These results are taken from patent US20030091568A1, “Inhibitors for the formation of soluble human CD23” (priority 2000, published 2003).

Where two headings read alike, the source gives them in different places.

The target in experiment [1] is oxidized human insulin B chain (human). In words: cell-based or functional assay.
A further experiment deals with T1, ADAM9-Fc fusion protein (Mus musculus, UniProt Q61072).
T1 construct: the complete extracellular domain of ADAM9 (aa 1-698); made in house; host or cells: HEK293-EBNA1 cells (pCEP4), purified on Protein A Sepharose
T1 sequence (Q61072 206-698 limits assumed): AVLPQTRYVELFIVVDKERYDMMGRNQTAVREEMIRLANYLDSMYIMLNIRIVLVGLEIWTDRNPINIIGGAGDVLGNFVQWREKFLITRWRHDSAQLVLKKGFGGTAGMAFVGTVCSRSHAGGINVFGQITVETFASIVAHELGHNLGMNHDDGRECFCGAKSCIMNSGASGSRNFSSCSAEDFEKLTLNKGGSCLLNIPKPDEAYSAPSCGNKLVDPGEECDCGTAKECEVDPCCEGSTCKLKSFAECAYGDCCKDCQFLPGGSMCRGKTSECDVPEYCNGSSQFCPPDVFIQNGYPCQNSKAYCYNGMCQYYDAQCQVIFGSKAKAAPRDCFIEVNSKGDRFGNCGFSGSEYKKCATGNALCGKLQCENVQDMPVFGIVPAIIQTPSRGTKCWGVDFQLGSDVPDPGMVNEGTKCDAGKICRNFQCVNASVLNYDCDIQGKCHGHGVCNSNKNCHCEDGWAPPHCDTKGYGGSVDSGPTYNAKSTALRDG
In words: Cleavage of oxidized insulin B chain by soluble ADAM9-Fc (MALDI-TOF). Type of experiment: biochemical. Conditions: 2 mM inhibitor. From the text: The estimated cleavage sites (marked by an ↓), determined by mass spectrometry (MALDI-TOF), are indicated.

Experiment [2] deals with T2, human CD23b (full length cDNA, expressed on transfected COS or CHO cells) (human) (UniProt P06734).
T2 sequence (looked up): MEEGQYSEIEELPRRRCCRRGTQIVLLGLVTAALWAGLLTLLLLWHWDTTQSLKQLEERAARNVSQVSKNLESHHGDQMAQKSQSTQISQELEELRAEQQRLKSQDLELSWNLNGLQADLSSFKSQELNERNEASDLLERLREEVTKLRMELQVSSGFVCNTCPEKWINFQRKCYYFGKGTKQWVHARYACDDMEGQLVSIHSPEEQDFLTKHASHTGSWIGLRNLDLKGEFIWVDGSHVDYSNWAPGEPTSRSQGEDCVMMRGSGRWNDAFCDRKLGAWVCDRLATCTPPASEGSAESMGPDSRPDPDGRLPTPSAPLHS
In words: cell-based or functional assay.

The target of experiment [3] is T2, human CD23b (full length cDNA, expressed on transfected COS or CHO cells) (human). In words: cell-based or functional assay. This is another data set of the same source.

oxidized human insulin B chain (human), sequence (peptide, as listed by the source): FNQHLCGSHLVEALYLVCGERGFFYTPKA

On to “soluble ADAM9-Fc fusion protein (ADAM9 aa 1-698 fused to human IgG1 Fc)”, for which the peptide cleavage (MALDI-TOF) (cleavage sites) in experiment [1] is 2.

With `c1cnc2c(c1)ccc1cccnc12` [o-phenanthroline], the “inhibition of cleavage of the insulin B chain” value against ADAM9-Fc fusion protein is on record as “completely inhibited”.

In experiment [2], “ADAM9ACT (truncated cytoplasmic domain), transfected into COS cells (from UniProt Q61072 30-845) (enzyme)” returned a decrease in surface fluorescence intensity of CD23 (FACS, cotransfected COS cells, 48 h) of 35 to 40%.

B1: ADAM9 (full length cDNA, transfected into COS-7 or CHO AA8 cells) (enzyme, murine, UniProt Q61072 30-845, looked up)
chain: GRPDLEQTVHLSSYEIITPWRLTRERREALGPSSQQISYVIQAQGKQHIIHLERNTDLLPNDFVVYTYDKEGSLLSDHPNVQSHCHYRGYVEGVQNSAVAVSACFGLRGLLHLENASFGIEPLHNSSHFEHIFYPMDGIHQEPLRCGVSNRDTEKEGTQGDEEEHPSVTQLLRRRRAVLPQTRYVELFIVVDKERYDMMGRNQTAVREEMIRLANYLDSMYIMLNIRIVLVGLEIWTDRNPINIIGGAGDVLGNFVQWREKFLITRWRHDSAQLVLKKGFGGTAGMAFVGTVCSRSHAGGINVFGQITVETFASIVAHELGHNLGMNHDDGRECFCGAKSCIMNSGASGSRNFSSCSAEDFEKLTLNKGGSCLLNIPKPDEAYSAPSCGNKLVDPGEECDCGTAKECEVDPCCEGSTCKLKSFAECAYGDCCKDCQFLPGGSMCRGKTSECDVPEYCNGSSQFCPPDVFIQNGYPCQNSKAYCYNGMCQYYDAQCQVIFGSKAKAAPRDCFIEVNSKGDRFGNCGFSGSEYKKCATGNALCGKLQCENVQDMPVFGIVPAIIQTPSRGTKCWGVDFQLGSDVPDPGMVNEGTKCDAGKICRNFQCVNASVLNYDCDIQGKCHGHGVCNSNKNCHCEDGWAPPHCDTKGYGGSVDSGPTYNAKSTALRDGLLVFFFLIVPLVAAAIFLFIKRDELRKTFRKKRSQMSDGRNQANVSRQPGDPSISRPPGGPNVSRPPGGPGVSRPPGGPGVSRPPGGPGVSRPPPGHGNRFPVPTYAAKQPAQFPSRPPPPQPKISSQGNLIPARPAPAPPLYSSLT
In experiment [3], B1 came in with an amount of s-CD23 in culture supernatant (ELISA), ADAM9 expression On against Off of 2 to 3 times; a decrease in surface bound CD23 (flow cytometry MFI, CHO clone 3, tetracycline removed) of 40 to 50%; a decrease in surface fluorescence intensity of CD23 (FACS, cotransfected COS cells, 48 h) of 35 to 40%.
